Measurements reported in paper PMC6365017 (Journal of molecular biology, 2018).
Residue numbers refer to the chain shown, from its start. Names and notes keep the numbering of the source.

How the values were obtained:
ZmALDH12 [1] = biological target: T1, ZmALDH12 (Zea mays, UniProt A0A2H4PMI3); assay: microscale thermophoresis; format: binding
ZmALDH12 [2] = biological target: ZmALDH12 (Zea mays, UniProt A0A2H4PMI3, C330A); assay: microscale thermophoresis; format: binding
ZmALDH12 [3] = biological target: T1, ZmALDH12; assay: microscale thermophoresis, label-free; format: binding
[4] = substrate: N[C@@H](CCCC=O)C(=O)O; assay: NADH formation, spectrophotometry/fluorescence; format: biochemical, Zea mays; conditions: 3.0 mM NAD+, 100 mM pyrophosphate pH 7.5, 30 °C
[5] = substrate: O=C[C@H](O)COP(=O)(O)O; assay: NADH formation, spectrophotometry/fluorescence; format: biochemical, Zea mays; conditions: 3.0 mM NAD+, 100 mM pyrophosphate pH 7.5, 30 °C
[6] = substrate: NC(CCC=O)C(=O)O; assay: NADH formation, spectrophotometry/fluorescence; format: biochemical, Zea mays; conditions: 3.0 mM NAD+, 100 mM pyrophosphate pH 7.5, 30 °C
[7] = substrate: NC(CCC=O)C(=O)O; assay: NADH formation, spectrophotometry/fluorescence; format: biochemical, Physcomitrium patens; conditions: 3.0 mM NAD+, 100 mM pyrophosphate pH 7.5, 30 °C
[8] = substrate: N[C@@H](CCCC=O)C(=O)O; assay: NADH formation, spectrophotometry/fluorescence; format: biochemical, Physcomitrium patens; conditions: 3.0 mM NAD+, 100 mM pyrophosphate pH 7.5, 30 °C
[9] = substrate: O=CCCCC(=O)O; assay: NADH formation, spectrophotometry/fluorescence; format: biochemical, Physcomitrium patens; conditions: 3.0 mM NAD+, 100 mM pyrophosphate pH 7.5, 30 °C

O=CCCCC(=O)O [GRSAL]
Kd (ZmALDH12 [1]): 34 ± 11 µM

NC(CCC=O)C(=O)O (racemic) [GSAL]
Kd (ZmALDH12 [1]): 166 ± 14 µM
Kd (ZmALDH12 [2]): 315 ± 48 µM

N[C@@H](CCC(=O)O)C(=O)O [glutamate]
Kd (ZmALDH12 [3]): 3100 ± 300 µM

NC(=O)c1ccc[n+]([C@@H]2O[C@H](COP(=O)(O)OP(=O)(O)OC[C@H]3O[C@@H](n4cnc5c(N)ncnc54)[C@H](O)[C@@H]3O)[C@@H](O)[C@H]2O)c1 [NAD^+]
Kd (ZmALDH12 [1]): 186 ± 25 µM

B1: ZmALDH12 (Zea mays) (protein)
chain: APFACVSRWLHTPSFATVSPQEVSGSSPAEVQNFVQGSWTASANWNWIVDPLNGDKFIKVAEVQGTEIKSFMESLSKCPKHGLHNPLKAPERYLMYGDISAKAAHMLGQPTVLDFFAKLIQRVSPKSYQQALAEVQVSQKFLENFCGDQVRFLARSFAVPGNHLGQRSNGYRWPYGPVAIITPFNFPLEIPLLQLMGALYMGNKPVLKVDSKVSIVMEQMIRLLHDCGLPAEDMDFINSDGAVMNKLLLEANPKMTLFTGSSRVAEKLAADLKGRVKLEDAGFDWKILGPDVQEVDYVAWVCDQDAYACSGQKCSAQSVLFMHKNWSSSGLLEKMKKLSERRKLEDLTIGPVLTVTTEAMIEHMNNLLKIRGSKVLFGGEPLANHSIPKIYGAMKPTAVFVPLEEILKSGNFELVTKEIFGPFQVVTEYSEDQLELVLEACERMNAHLTAAIVSNDPLFLQDVLGRSVNGTTYAGIRARTTGAPQNHWFGPAGDPRGAGIGTPEAIKLVWSCHREIIYDVGPVPESWALPSAT
Km [4]: 173 ± 12 µM
kcat [4]: 0.04 ± 0.02 s⁻¹
kcat/Km [4]: 200 ± 20 M⁻¹ s⁻¹
Km [5]: 1860 ± 99 µM
kcat [5]: 0.4 ± 0.1 s⁻¹
kcat/Km [5]: 210 ± 20 M⁻¹ s⁻¹

B2: ZmALDH12 (Zea mays; K329A) (protein)
chain: B1 chain with K313A
Km [6]: 958 ± 47 µM
kcat [6]: 0.26 ± 0.01 s⁻¹

B3: PpALDH12 (Physcomitrium patens) (protein)
chain: SSTLLSDHRPQSSLSFASCDADKLSEAHQYQMHNLVQGKWEQTSKSIELLDPLNGEKFISVPDTSIDEISPFVQSLRACSKSGLHNPLKNPERYLLYGDIMAKAAHLLKQPQVETFFARLIQRVAPKSFAQAVGEVTVTQKFLENFSGDQVRFLARSFVVPGNYQGQQSNGMRWPYGPVAIITPFNFPLEIPALQALGALFMGNKPILKVDSKVSIVMEQFIRLLHKCGMPPTDMDFINSDGPVMNKLLLEAEPKTTLFTGSSKVAEKLALDLKGRVKLEDAGFDWKILGPDVQNEDYVAWVCDQDAYACSGQKCSAQSILFMHENWANQNFLERLKKLASKRKLEDLTVGPVLTVTTERMLDHVKNLLAIPGARVEFGGKPLTNHTIPDVYGALEPTAVFVPLKEILRNEENFALATTEIFGPFQILTEYKHEDLPLVFEACERMHAHLTAAVVSNDVHFLQEVLSNTVNGTTYAGIRARTTGAPQNHWFGPAGDPRGAGIGTPEAIKLVWSCHREIIQDVGPIPNGWSTPQCT
Km [7]: 228 ± 40 µM
kcat [7]: 0.44 ± 0.05 s⁻¹
kcat/Km [7]: 1900 ± 600 M⁻¹ s⁻¹
Km [8]: 211 ± 13 µM
kcat [8]: 0.005 ± 0.001 s⁻¹
kcat/Km [8]: 26 ± 2 M⁻¹ s⁻¹
Km [9]: 82 ± 6 µM
kcat [9]: 0.3 ± 0.02 s⁻¹
kcat/Km [9]: 3700 ± 600 M⁻¹ s⁻¹
